Data taken from US8226967B2, “Surface active proteins as excipients in solid pharmaceutical formulations” (BASF SE, priority 2008, dated 2012).

Legend:
Type in all cases: physicochemical
[1] = Dissolution test of Traumeel S tablets coated with alginate/hydrophobin biopolymer; conditions: Traumeel S tablets coated with 2% alginate containing 200 μg/ml protein, 0.1 M HCl pH 1, ambient temperature, FIG. 5A
Description: Homeopathic Traumeel®S tablets (Heel GmbH, Baden Baden, Germany) are used for coating experiments. These tablets are highly soluble and are formulated based on lactose monohydrate and magnesium stearate. […] Tablets are then immersed immediately into a solution of 0.1 M CaCl2 and dried at room temperature. For the dissolution test, tablets are immersed in 50 ml 0.1 M HCl at room temperature.
Traumeel® S (Heel) tablets are coated with hydrophobin, and resistance to acidic conditions of pH 1.0 is tested in a dissolution assay. Traumeel® S tablets are submersed in a solution of 2% alginate, containing 200 μg/ml TT, PO, TR or SC, respectively. […] After short submersion, alginate-coated tablets are allowed to polymerise in 0.1M CaCl2 and dried over night at ambient temperature.
The incubation for the dissolution test is at ambient temperature in 0.1M HCl for 10 to 120 min. Results: The coating of tablets with a biopolymer consisting of alginate with an admixture of hydrophobin yields beneficial properties regarding sustained release of a pharmaceutical composition.

[2] = Release of indicator dye from gelatine capsules coated by spraying with hydrophobin; conditions: for release of dye from capsules (retention of dye within the capsule): gelatine capsules sprayed with 200 μg/ml hydrophobin in water, 0.1 M HCl pH 1.0, interval of observation 2 hours, FIG. 1A
Excerpt: (§1) For setting up the leakage experiments, gelatine capsules with a volume of 0.68 cm^3 (Capsulae operculatae Nr. 0, Pharmapol GmbH, D-25578 Dageling) are filled with the indicator dye bromo phenol blue. The capsules are filled with equal weight proportions of mannitol, sodium hydrogen carbonate, trisodium citrate dehydrogenate and water-soluble bromo phenol blue and closed by joining the upper and lower part of the capsule tightly. To avoid unspecific leakage from the capsule, the joint is sealed.
The filled and sealed capsules are sprayed using a commercially available nebuliser with a solution of 200 μg/ml SC in water.
(§2) For testing the release of dye from the capsules after different surface treatments, the capsules are submerged in 50 ml 0.1 M HCl corresponding to a pH of 1.0 in order to mimic the acidic environment in the stomach. In a second setup, 0.4 U/ml pepsin are added to the 0.1 M HCl to test for resistance to a typical enzyme in the stomach juice. Quantification of the release is accomplished by computer aided optical evaluation of different areas of the solution in the immersion bath leading to arbitrary luminance units.
The release of dye from capsules coated by spraying with hydrophobins or as a control with water, respectively, is assayed in an acidic environment to mimic stomach conditions. The amount of dye contained in the immersion bath is measured by optical evaluation and given as arbitrary luminance units.

[3] = Dissolution of gelatine films with or without hydrophobin; conditions: gelatine with 200 μg/ml hydrophobin
Description: Gelatine (stained red, purchased from RUF, Quakenbrück, Germany) is solubilized in water or a SC-solution (final concentration 200 μg/ml). 500 μl solubilized gelatine is added per well of a 6-well macroplate. Gelatine is dried over night at 50° C. Then 500 μl H2O, 0.1 N HCl or 0.1 N HCl with 0.4 U/ml pepsin, respectively, are added to the wells.

[4] = Release of indicator dye from gelatine capsules coated with alginate/hydrophobin biopolymer
Excerpt: as §1
Filled and sealed capsules were submerged in a solution of 2% w/v alginate (E400) containing 200 μg/ml hydrophobin for 10 seconds. […] Crosslinking of alginate is accomplished by subsequent submerging in 0.1 M CaCl2. Subsequently, the capsules are dried at room temperature.
as §2
Hydrophobin SC is prepared and the gelatine capsules are filled with indicator dye as described above. Filled and sealed capsules are submerged in a solution of 2% w/v alginate (E400) containing 200 μg/ml hydrophobin.
Three hydrophobins are used to test if the modulation of the release kinetics of alginate coated gelatine capsules can be achieved with different hydrophobins. SC is prepared as described further above. Two additional hydrophobins are recombinantly produced in a similar procedure as described for SC. TT is from Talaromyces thermophilus and PO from Pleurotus ostreatus. Capsules are filled with indicator dye, sealed and immersed in a mixture of alginate and hydrophobin SC, TT or PO, respectively, as described in examples 1 and 2. As a control, an admixture of alginate and BSA is used. […]

Row | Molecule | resistance to dissolution of the coated tablet (integrity of tablets) [1] | release of dye from capsules (retention of dye within the capsule) [2] | release of dye from capsules (retention of dye within the capsule) ([2]; listed as SC3) | release of dye from capsules ([2]; sprayed gelatine capsules, 0.1 M HCl pH 1.0 with 0.4 U/ml pepsin, FIG. 1B) | dissolution of gelatine ([3]; dried, H2O, 0.1 N HCl or 0.1 N HCl with 0.4 U/ml pepsin, FIG. 5B) | dissolution of gelatine in an environment mimicking gastric juices ([3]; 0.1 N HCl, with or without 0.4 U/ml pepsin) | dissolution of the biopolymer gelatine in water ([3]; water) | resistance of coated capsules / onset of dye release, acidic environment ([4]; alginate with 200 μg/ml protein, pH 1.0, FIG. 3A) | release characteristics of capsules (dye release) ([4]; alginate-coated capsules, 200 μg/ml protein, 0.1 M HCl pH 1.0 with 0.4 U/ml pepsin, FIG. 2B) | resistance of capsules to acidic conditions (dye release) ([4]; capsules submerged in 2% w/v alginate containing 200 μg/ml protein, pH 1.0, FIG. 2A) | resistance to dissolution of the coated tablet (integrity of tablets) ([1]; listed as SC3)
1 | PO: class I hydrophobin from Pleurotus ostreatus, accession CAA76494, recombinant from E. coli (protein, UniProt O60048 22-113, looked up) Class I hydrophobin POH3: IPRTNPPAPTCTTGSLQCCNSVQAASNPVVGLLAGLLGIVLGPITGQVGLTCSPITVIGVGGTSCSAQTVCCNGNSFNGLIVVGCSPVNISL | superior to the class II hydrophobin TR | – | – | – | – | – | – | – | – | – | –
2 | SC: class I hydrophobin from Schizophyllum commune, accession P16933, recombinant his-tagged from E. coli (protein, UniProt P16933 25-136, looked up, His tag) Class I hydrophobin SC3: GGHPGTTTPPVTTTVTVTTPPSTTTIAAGGTCTTGSLSCCNQVQSASSSPVTALLGLLGIVLSDLNVLVGISCSPLTVIGVGGSGCSAQTVCCENTQFNGLINIGCTPINIL | superior to the class II hydrophobin TR | prolonged retention of dye within the capsule | resistant to an acidic environment | same advantageous release characteristics | inhibits the dissolution of gelatine | reduced | strongly hampered | increased resistance to stomach juices | essentially the same | comparable to that of gelatine capsules sprayed with hydrophobin | delays the dissolution of the tablets significantly
